Reference: publication PMC3519385 (Structure (London, England : 1993), 2012)
Where “and” joins values, the source holds several entries; their conditions need not be identical. Identical values can stand only once. Like-named read-outs stand apart in the source and are kept apart here.

T1: Gemin2 (UniProt O14893 1-280)
T1 sequence (looked up): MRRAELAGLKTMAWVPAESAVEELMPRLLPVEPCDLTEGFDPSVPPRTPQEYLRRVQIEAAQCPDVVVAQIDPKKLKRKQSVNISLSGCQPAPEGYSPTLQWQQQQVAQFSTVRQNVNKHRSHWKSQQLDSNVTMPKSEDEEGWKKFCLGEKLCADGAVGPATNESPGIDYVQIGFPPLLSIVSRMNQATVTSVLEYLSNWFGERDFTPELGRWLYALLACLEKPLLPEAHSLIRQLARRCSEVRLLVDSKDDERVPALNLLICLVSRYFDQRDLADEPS

B1: MBP-SMN^229–294 (domain or fragment, human, UniProt Q16637 229-294, looked up)
chain: LSCWLPPFPSGPPIIPPPPPICPDSLDDADALGSMLISWYMSGYHTGYYMGFRQNQKEGRCSHSLN
B2: SMN Δexon5 (SMNΔ5) (natural protein, human, UniProt Q16637-2 1-262, looked up)
chain: MAMSSGGSGGGVPEQEDSVLFRRGTGQSDDSDIWDDTALIKAYDKAVASFKHALKNGDICETSGKPKTTPKRKPAKKNKSQKKNTAASLQQWKVGDKCSAIWSEDGCIYPATIASIDFKRETCVVVYTGYGNREEQNLSDLLSPICEVANNIEQNAQENENESQVSTDESENSRSPGNKSDNIKPKSAPWNSFLPPPPPMPGPRLGPGKIIPPPPPICPDSLDDADALGSMLISWYMSGYHTGYYMGFRQNQKEGRCSHSLN

How the values were obtained:
[1] = molecular target: the molecule itself
Gemin2 = molecular target: T1, Gemin2; test: co-purification
SEC-MALS [2] = molecular target: the molecule itself; test: SEC-MALS
SEC-MALS [3] = molecular target: the molecule itself; test: SEC-MALS; remark: listed apart in the source

| Binder | stoichiometry N (SEC-MALS [2]) | stoichiometry N (SEC-MALS [3]) | also measured |
| --- | --- | --- | --- |
| B1 | – | – | stoichiometry N [1]: 4 and 8 |
| B2 | – | – | stoichiometry N (Gemin2): 1 |
| MLISWYMSGYHTGYYMGFRQNQKEGRCSHSLN (domain or fragment, human, UniProt Q16637 263-294, looked up) [MBP-YG^263–294] | – | – | stoichiometry N [1]: 2 |
| DSLDDADALASMLISWYMSGYHTGYYMGFRQNQKEGRCSHSLN (domain or fragment, human, UniProt Q16637 252-294, looked up) [MBP-YG^252–294 G261A] | ≥ 4 | – | – |
| DSLDDADALGIMLISWYMSGYHTGYYMGFRQNQKEGRCSHSLN (domain or fragment, human, UniProt Q16637 252-294, looked up) [MBP-YG^252–294 S262I] | – | ≥ 4 | – |
| DSLDDADALGSMLISWYMAGYHTGYYMGFRQNQKEGRCSHSLN (domain or fragment, human, UniProt Q16637 252-294, looked up) [MBP-YG^252–294 S270A] | ≥ 4 | – | – |
| DSLDDADALGGMLISWYMSGYHTGYYMGFRQNQKEGRCSHSLN (domain or fragment, human, UniProt Q16637 252-294, looked up) [MBP-YG^252–294 S262G] | – | 4 | – |
| DSLDDADALGSMLISWYMSGYHTGYYMAFRQNQKEGRCSHSLN (domain or fragment, human, UniProt Q16637 252-294, looked up) [MBP-YG^252–294 G279A] | ≥ 4 | – | – |
| DSLDDADALGSMLISWYMSGYHIGYYMGFRQNQKEGRCSHSLN (domain or fragment, human, UniProt Q16637 252-294, looked up) [MBP-YG^252–294 T274I] | – | 4 | – |
| DSLDDADALGSMLISWYMSGYHTGYYMCFRQNQKEGRCSHSLN (domain or fragment, human, UniProt Q16637 252-294, looked up) [MBP-YG^252–294 G279C] | – | ≥ 4 | – |
| DSLDDADALGSMLISWYMSGYRTGYYMGFRQNQKEGRCSHSLN (domain or fragment, human, UniProt Q16637 252-294, looked up) [MBP-YG^252–294 H273R] | – | 4 | – |
| DSLDDADALGSMLISWYMSGYHTGYYMGFRQAQKEGRCSHSLN (domain or fragment, human, UniProt Q16637 252-294, looked up) [MBP-YG^252–294 N283A] | ≥ 4 | – | – |
| DSLDDADALGSMLISWYMSGYHTGYYMGFRQNQKEGRCSHSLN (domain or fragment, human, UniProt Q16637 252-294, looked up) [MBP-YG^252–294] | – | 4 | – |
